Laboratory results as given in PMC5201024.

Biological target: MST3/4 (endogenous MST3 and MST4, m10/m11)
Experiment: co-immunoprecipitation (anti-Myc IP, immunoblot quantification)
Settings: HeLa cells co-transfected with Myc-RHOA-Q63L and GFP-FAM65A full-length; n=3 independent experiments; read off a plot

RHOA wild type (P61586) Q63L
response (IP/Input ratio (arbitrary units)): 4.6
